Target: NL2HA-S714A (human) (UniProt Q8NFZ4)
Assay: co-IP

UniProt Q8NFZ4, sequence (Q8NFZ4 15-835, stated change not applied): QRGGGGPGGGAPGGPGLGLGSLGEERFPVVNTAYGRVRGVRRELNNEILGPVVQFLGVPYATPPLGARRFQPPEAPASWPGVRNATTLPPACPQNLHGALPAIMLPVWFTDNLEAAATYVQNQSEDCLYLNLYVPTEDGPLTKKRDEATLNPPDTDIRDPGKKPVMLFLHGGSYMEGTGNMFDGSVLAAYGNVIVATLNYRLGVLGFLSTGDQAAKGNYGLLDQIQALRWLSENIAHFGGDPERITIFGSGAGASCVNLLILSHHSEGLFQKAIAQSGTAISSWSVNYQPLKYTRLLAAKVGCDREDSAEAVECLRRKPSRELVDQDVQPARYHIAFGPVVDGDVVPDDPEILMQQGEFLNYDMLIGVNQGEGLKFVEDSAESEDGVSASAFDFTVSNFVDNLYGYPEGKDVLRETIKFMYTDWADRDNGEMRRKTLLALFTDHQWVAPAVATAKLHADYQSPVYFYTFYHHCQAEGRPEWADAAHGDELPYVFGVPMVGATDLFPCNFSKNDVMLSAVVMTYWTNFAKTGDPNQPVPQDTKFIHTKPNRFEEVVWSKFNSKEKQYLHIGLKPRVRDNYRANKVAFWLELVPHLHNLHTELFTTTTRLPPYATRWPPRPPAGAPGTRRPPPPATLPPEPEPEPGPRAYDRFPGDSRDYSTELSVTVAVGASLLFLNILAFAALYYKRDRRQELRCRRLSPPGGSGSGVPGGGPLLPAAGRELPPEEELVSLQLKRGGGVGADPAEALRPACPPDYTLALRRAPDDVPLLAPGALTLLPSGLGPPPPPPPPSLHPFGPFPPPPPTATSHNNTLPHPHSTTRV

increase of co-precipitated gephyrin-FLAG against NL2HA: 140%
B1: gephyrin-FLAG (natural protein)
chain: MATEGMILTNHDHQIRVGVLTVSDSCFRNLAEDRSGINLKDLVQDPSLLGGTISAYKIVPDEIEEIKETLIDWCDEKELNLILTTGGTGFAPRDVTPEATKEVIEREAPGMALAMLMGSLNVTPLGMLSRPVCGIRGKTLIINLPGSKKGSQECFQFILPALPHAIDLLRDAIVKVKEVHDELEDLPSPPPPLSPPPTTSPHKQTEDKGVQCEEEEEEKKDSGVASTEDSSSSHITAAALAAKIPDSIISRGVQVLPRDTASLSTTPSESPRAQATSRLSTASCPTPKVQSRCSSKENILRASHSAVDITKVARRHRMSPFPLTSMDKAFITVLEMTPVLGTEIINYRDGMGRVLAQDVYAKDNLPPFPASVKDGYAVRAADGPGDRFIIGESQAGEQPTQTVMPGQVMRVTTGAPIPCGADAVVQVEDTELIRESDDGTEELEVRILVQARPGQDIRPIGHDIKRGECVLAKGTHMGPSEIGLLATVGVTEVEVNKFPVVAVMSTGNELLNPEDDLLPGKIRDSNRSTLLATIQEHGYPTINLGIVGDNPDDLLNALNEGISRADVIITSGGVSMGEKDYLKQVLDIDLHAQIHFGRVFMKPGLPTTFATLDIDGVRKIIFALPGNPVSAVVTCNLFVVPALRKMQGILDPRPTIIKARLSCDVKLDPRPEYHRCILTWHHQEPLPWAQSTGNQMSSRLMSMRSANGLLMLPPKTEQYVELHKGEVVDVMVIGRL

Source: publication PMC4197815
